67 sequences from the supplement of paper PMC10126150 can be followed below.

This data set concerns ATP. As to the kind of experiment: switch fluorescence ratio, 500 uM ATP over buffer (Cy3 cluster intensity, sum of 5 cycles each) (fold (ratio)); higher = stronger signal-on switching upon ATP binding; sequences stand for … in TCGTCGGCAGCGTCAGATGTGTATAAGAGACAGTTTTTTTTTTTTTTTTTTTTTTTTT…TC. The following applies: aptamer strand: ATP DNA aptamer (quencher-CACCTGGGGGAGTATTGCGGAGGAAGG + anchor), 100 nM annealed; ATP concentration: 500 uM. The method, boiled down: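 Values give the fluorescence ratio for each switch-domain sequence, averaged from per-cluster ratios of summed target-cycle to summed buffer-cycle Cy3 intensity. The Cy3-labelled switching-strand clusters sat on a modified Illumina MiSeq flow-cell, were annealed to 100 nM quencher-labelled ATP aptamer, and were imaged in selection buffer, then after 15 min with 500 uM ATP at 22 °C. Five cycles ran with NaOH stripping and re-annealing between them, and clusters outside 100-1000 RFU were excluded.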

± gives the standard deviation of the averaged measurements.
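Also: ATP exposure 15 min at 22 °C before imaging.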

As for TACGTTATTT, the switch fluorescence ratio was 1.16 ± 0.027.
The figure for TACGTTGCAT is 1.05 ± 0.055; for TACGTTTAAT it is 1.04 ± 0.031; for TACTACACAC it is 1.406 ± 0.013.
As for TACTACGTAA, the switch fluorescence ratio amounted to 2.27 ± 0.4.
With TACTACTATT, the switch fluorescence ratio was determined as 1.03 ± 0.016.
As for TACTACTTGC, the switch fluorescence ratio is 1.05 ± 0.0085.
For TACTAGAGCG, the switch fluorescence ratio was found to be 1.03 ± 0.04.
Turning to TACTATGTTG, the switch fluorescence ratio was found to be 1.02 ± 0.065.
Regarding TACTATTGGA, the switch fluorescence ratio worked out at 1.01 ± 0.021.
As for TACTATTTTC, the switch fluorescence ratio came to 0.984 ± 0.042.
Turning to TACTCACGAA, the switch fluorescence ratio amounted to 1.42 ± 0.027.
As for TACTCATGAA, the switch fluorescence ratio was 1.038 ± 0.0037.
As to TACTCGTCTA, the switch fluorescence ratio is 1.02 ± 0.018.
Turning to TACTCTCGGT, the switch fluorescence ratio is 1.035 ± 0.0057.
Consider TACTCTTTGT, for which the switch fluorescence ratio is 1.015 ± 0.002.
For the sequence TACTGAATGG, the switch fluorescence ratio was found to be 0.997 ± 0.0051.
As for TACTGCAATT, the switch fluorescence ratio is 1.35 ± 0.22.
On to TACTGCGGTC, for which the switch fluorescence ratio came to 0.998 ± 0.012.
The figure for TACTGGAAGG is 0.941 ± 0.019; for TACTGGACTT it is 1.14 ± 0.033; for TACTGGATGA it is 0.991 ± 0.029.
TACTGGCTAA: the switch fluorescence ratio worked out at 1 ± 0.038.
Next, TACTGGGGAC: 1.03 ± 0.035.
In the case of TACTGGGGGA, the switch fluorescence ratio came to 1.07 ± 0.03.
Regarding TACTGGGTCG, the switch fluorescence ratio is 1.01 ± 0.043.
TACTGTACTC: the switch fluorescence ratio turned out to be 1.54 ± 0.035.
With TACTTAAAAC, the switch fluorescence ratio worked out at 1.011 ± 0.0078.
Consider TACTTACTAG, for which the switch fluorescence ratio stood at 1.099 ± 0.01.
In the case of TACTTAGGTT, the switch fluorescence ratio was determined as 0.98 ± 0.024.
Regarding TACTTAGTGC, the switch fluorescence ratio is 1.02 ± 0.045.
Take TACTTGAGCG: the switch fluorescence ratio was found to be 1.02 ± 0.02.
For the sequence TACTTGCTTC, the switch fluorescence ratio is 1.02 ± 0.038.
Take TACTTGGAAC: the switch fluorescence ratio is 1.04 ± 0.012.
As to TACTTTATTA, the switch fluorescence ratio came to 1.019 ± 0.0035.
Regarding TAGAAACGCG, the switch fluorescence ratio was determined as 0.983 ± 0.025.
Regarding TAGAAATGAT, the switch fluorescence ratio worked out at 0.987 ± 0.033.
In the case of TAGAAATTGG, the switch fluorescence ratio came to 1.03 ± 0.03.
The figure for TAGAACGTCG is 0.98 ± 0.031; for TAGAAGACAG it is 0.996 ± 0.025; for TAGAAGCCGG it is 0.98897 ± 0.00029.
Next, TAGAAGGGCC: 0.976 ± 0.02.
Consider TAGAAGGTGG, for which the switch fluorescence ratio was 1.04 ± 0.073.
For the sequence TAGAATCAGG, the switch fluorescence ratio is 1.055 ± 0.0011.
Regarding TAGAATCCG, the switch fluorescence ratio was determined as 1.003 ± 0.009.
As for TAGAATTATC, the switch fluorescence ratio turned out to be 1.017 ± 0.0056.
With TAGAATTGGT, the switch fluorescence ratio was determined as 0.983 ± 0.016.
Next, TAGACAAAAA: 1.08 ± 0.12; TAGACATCCA: 1.048 ± 0.0045; TAGACGCTCA: 1.105 ± 0.0057.
As to TAGACGGGCT, the switch fluorescence ratio was 0.9797 ± 0.0025.
For TAGACTATGG, the switch fluorescence ratio amounted to 1.04 ± 0.023.
On to TAGACTGGTT, for which the switch fluorescence ratio came out at 0.992 ± 0.018.
Turning to TAGACTTTGG, the switch fluorescence ratio came to 0.968 ± 0.025.
As for TAGAGACGGA, the switch fluorescence ratio was found to be 1.0278 ± 0.001.
Regarding TAGAGATCTG, the switch fluorescence ratio was 0.996 ± 0.014.
Next, TAGAGCTGCA: 1.02 ± 0.026; TAGAGCTTAG: 0.9812 ± 0.0037; TAGAGGAG: 1.01 ± 0.05.
For TAGAGGATGC, the switch fluorescence ratio was 0.998 ± 0.07.
With TAGAGGCGAA, the switch fluorescence ratio is 1 ± 0.011.
As for TAGAGGCGTT, the switch fluorescence ratio is 0.986 ± 0.012.
On to TAGAGGGGCA, for which the switch fluorescence ratio worked out at 0.979 ± 0.011.
Next, TAGAGGGGGT: 0.998 ± 0.039.
TAGAGGTGGG: the switch fluorescence ratio was 1.21 ± 0.34.
As to TAGAGTGATG, the switch fluorescence ratio amounted to 0.943 ± 0.013.
Next, TAGAGTTCTC: 1.01 ± 0.013.
